Test results as given in EP1601683B1.

Target: monoclonal anti-H2a antibody of hybridoma clone B9 (ECACC provisional accession number 04030801)
Assay: competitive ELISA, B9 ascitic fluid preincubated overnight with free specific peptide, then added to the peptide-coated plate

CEKRRNATGEVA [H2 carboxyterminal peptide (SEQ ID NO. 1, …)]
% inhibition of the reaction: 81%
